Experimental data published in IntAct's records for PubMed 18854158.

B1: Double-strand break repair protein rad32 (Schizosaccharomyces pombe (strain ATCC 38366 / 972)), Q09683 (parent)
chain: MPNDPSDMNNELHNENTIRILISSDPHVGYGEKDPVRGNDSFVSFNEILEIARERDVDMILLGGDIFHDNKPSRKALYQALRSLRLNCLGDKPCELELLSDTSLTTGDTAVCNINYLDPNINVAIPVFSIHGNHDDPSGDGRYSALDILQVTGLVNYFGRVPENDNIVVSPILLQKGFTKLALYGISNVRDERLYHSFRENKVKFLRPDLYRDEWFNLLTVHQNHSAHTPTSYLPESFIQDFYDFVLWGHEHECLIDGSYNPTQKFTVVQPGSTIATSLSPGETAPKHCGILNITGKDFHLEKIRLRTVRPFIMKDIILSEVSSIPPMVENKKEVLTYLISKVEEAITEANAQWYEAQGTVPVVENEKPPLPLIRLRVDYTGGYQTENPQRFSNRFVGRVANATDVVQFYLKKKYTRSKRNDGLYTSAVEDIKINSLRVESLVNEYLKTNRLECLPEDSLGEAVVNFVEKDDRDAIKECVETQLNKQINLLVKKRVTEENLEQEISSIINDLPKISTTKRKDYEELPEEVSETSINIAEHTPVLKHTSSLLDHHSPLATSSSEHEMEATPSPALLKKTNKRRELPSSLTKKNTRTPQRSKEVKKVPARKLSQSTKKSDKNTQSTLLFYDPSSTTEAQYLDNEDDEILDD
partner: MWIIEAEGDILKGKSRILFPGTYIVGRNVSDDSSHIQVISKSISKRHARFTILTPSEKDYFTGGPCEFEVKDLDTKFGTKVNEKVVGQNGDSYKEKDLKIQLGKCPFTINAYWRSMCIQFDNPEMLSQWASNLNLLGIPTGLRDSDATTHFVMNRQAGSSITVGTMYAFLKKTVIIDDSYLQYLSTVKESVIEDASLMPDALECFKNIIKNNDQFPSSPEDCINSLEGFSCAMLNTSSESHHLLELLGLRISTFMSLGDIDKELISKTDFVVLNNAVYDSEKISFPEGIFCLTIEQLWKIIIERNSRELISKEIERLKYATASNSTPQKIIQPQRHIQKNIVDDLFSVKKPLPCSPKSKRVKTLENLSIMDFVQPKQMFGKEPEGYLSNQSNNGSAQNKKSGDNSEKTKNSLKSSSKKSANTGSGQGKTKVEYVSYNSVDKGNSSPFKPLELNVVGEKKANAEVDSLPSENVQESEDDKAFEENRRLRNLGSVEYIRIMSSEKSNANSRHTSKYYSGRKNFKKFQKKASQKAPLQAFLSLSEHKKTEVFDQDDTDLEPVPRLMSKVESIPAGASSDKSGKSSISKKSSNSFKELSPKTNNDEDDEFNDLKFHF
B2: Double-strand break repair protein rad32 (Schizosaccharomyces pombe (strain ATCC 38366 / 972)), Q09683 (parent)
chain: B1 chain
partner: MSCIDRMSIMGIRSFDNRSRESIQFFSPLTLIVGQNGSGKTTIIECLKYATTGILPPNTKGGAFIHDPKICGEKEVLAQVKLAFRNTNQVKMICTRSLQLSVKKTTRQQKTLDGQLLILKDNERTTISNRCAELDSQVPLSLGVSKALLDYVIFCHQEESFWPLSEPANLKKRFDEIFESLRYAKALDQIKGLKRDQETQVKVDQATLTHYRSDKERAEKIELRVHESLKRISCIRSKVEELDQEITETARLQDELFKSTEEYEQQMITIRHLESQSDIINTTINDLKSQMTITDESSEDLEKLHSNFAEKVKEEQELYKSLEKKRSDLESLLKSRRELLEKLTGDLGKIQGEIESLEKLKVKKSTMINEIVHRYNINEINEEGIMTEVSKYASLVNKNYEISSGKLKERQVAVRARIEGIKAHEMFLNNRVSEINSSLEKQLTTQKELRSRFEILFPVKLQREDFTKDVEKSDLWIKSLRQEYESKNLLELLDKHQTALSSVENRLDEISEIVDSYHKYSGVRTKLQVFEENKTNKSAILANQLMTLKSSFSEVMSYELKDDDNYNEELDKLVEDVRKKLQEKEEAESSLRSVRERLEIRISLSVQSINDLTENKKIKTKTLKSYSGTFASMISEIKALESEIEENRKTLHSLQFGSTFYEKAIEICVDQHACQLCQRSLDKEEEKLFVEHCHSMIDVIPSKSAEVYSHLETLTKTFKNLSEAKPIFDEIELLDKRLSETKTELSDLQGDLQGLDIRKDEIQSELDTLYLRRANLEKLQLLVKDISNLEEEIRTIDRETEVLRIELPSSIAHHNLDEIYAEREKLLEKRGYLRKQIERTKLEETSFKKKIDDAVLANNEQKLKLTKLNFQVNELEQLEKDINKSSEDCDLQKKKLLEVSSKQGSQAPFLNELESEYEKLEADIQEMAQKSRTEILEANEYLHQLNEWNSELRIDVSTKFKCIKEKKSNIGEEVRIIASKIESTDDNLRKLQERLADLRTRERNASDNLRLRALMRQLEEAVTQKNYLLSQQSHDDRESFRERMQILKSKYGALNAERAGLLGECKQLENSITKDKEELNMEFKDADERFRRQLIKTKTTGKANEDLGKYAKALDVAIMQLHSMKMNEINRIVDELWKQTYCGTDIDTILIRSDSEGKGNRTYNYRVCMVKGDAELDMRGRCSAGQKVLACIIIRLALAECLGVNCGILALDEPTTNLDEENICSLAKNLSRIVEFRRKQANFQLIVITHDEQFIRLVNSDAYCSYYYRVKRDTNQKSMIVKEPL

Variants of: B1
Settings: with nbs1_schpo nbs1, O43070

Variant | effect of a mutation on the interaction
L77K;L154D | decreasing interaction

Variants of: B2
Settings: with rad50_schpo rad50, Q9UTJ8

Variant | effect of a mutation on the interaction
L77K;L154D | decreasing interaction
